Results published in publication PMC7717565 (PLoS Biology, 2020).

Target: Rabbit skeletal muscle α-actin, filamentous (F-actin) (rabbit, UniProt P68135 1-377)
Conditions: both partners purified

| Kd [µM] | Binder |
| --- | --- |
| 6 ± 0.7 | MGVADLIKKFESISKRE (One of the plasmids 2479, 2556, 2557, 2558; also called E16R Lifeact variant; source: E. coli BL21-CodonPlus(DE3)-RIPL, purified (Protino Ni-IDA resin, dialysis)) [E16R Lifeact–mCherry] |
| 8.1 ± 0.6 | MGVADLIKKFESISKEK (Lifeact (17 N-terminal residues of yeast ABP140) with E17K, fused to mCherry; One of the plasmids 2479, 2556, 2557, 2558; also called E17K variant of Lifeact; source: E. coli BL21-CodonPlus(DE3)-RIPL, purified (Protino Ni-IDA resin, dialysis)) [E17K Lifeact–mCherry] |
